B1: Ras-related protein Rab-6B (Homo sapiens), Q9NRW1 (parent)
chain: MSAGGDFGNPLRKFKLVFLGEQSVGKTSLITRFMYDSFDNTYQATIGIDFLSKTMYLEDRTVRLQLWDTAGQERFRSLIPSYIRDSTVAVVVYDITNLNSFQQTSKWIDDVRTERGSDVIIMLVGNKTDLADKRQITIEEGEQRAKELSVMFIETSAKTGYNVKQLFRRVASALPGMENVQEKSKEGMIDIKLDKPQEPPASEGGCSC
partner: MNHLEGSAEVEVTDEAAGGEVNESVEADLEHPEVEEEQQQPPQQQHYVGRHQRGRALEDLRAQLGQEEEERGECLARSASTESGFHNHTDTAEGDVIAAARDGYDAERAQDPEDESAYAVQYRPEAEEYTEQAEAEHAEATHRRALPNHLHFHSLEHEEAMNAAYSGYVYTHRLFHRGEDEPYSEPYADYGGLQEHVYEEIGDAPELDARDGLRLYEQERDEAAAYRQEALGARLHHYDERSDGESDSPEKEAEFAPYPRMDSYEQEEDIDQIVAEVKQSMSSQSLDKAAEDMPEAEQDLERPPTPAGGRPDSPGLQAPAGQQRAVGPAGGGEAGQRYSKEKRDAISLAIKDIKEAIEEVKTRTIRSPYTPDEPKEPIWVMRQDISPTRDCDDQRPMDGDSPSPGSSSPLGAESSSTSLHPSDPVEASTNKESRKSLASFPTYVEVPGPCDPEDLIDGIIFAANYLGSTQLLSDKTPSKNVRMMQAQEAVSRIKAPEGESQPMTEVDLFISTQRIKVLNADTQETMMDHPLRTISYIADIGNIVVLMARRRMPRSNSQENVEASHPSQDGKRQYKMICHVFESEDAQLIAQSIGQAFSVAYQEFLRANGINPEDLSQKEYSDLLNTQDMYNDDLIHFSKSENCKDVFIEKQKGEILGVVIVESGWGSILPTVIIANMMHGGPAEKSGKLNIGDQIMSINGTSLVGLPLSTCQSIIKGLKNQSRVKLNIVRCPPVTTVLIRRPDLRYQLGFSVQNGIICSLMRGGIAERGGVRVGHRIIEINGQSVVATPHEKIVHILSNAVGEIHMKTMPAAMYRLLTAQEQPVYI
B2: Ras-related protein Rab-6A (Homo sapiens), P20340-1 (parent)
chain: MSTGGDFGNPLRKFKLVFLGEQSVGKTSLITRFMYDSFDNTYQATIGIDFLSKTMYLEDRTVRLQLWDTAGQERFRSLIPSYIRDSTVAVVVYDITNVNSFQQTTKWIDDVRTERGSDVIIMLVGNKTDLADKRQVSIEEGERKAKELNVMFIETSAKAGYNVKQLFRRVAAALPGMESTQDRSREDMIDIKLEKPQEQPVSEGGCSC
partner: B1 partner
B3: Ras-related protein Rab-6A (Homo sapiens), P20340-1 (parent)
chain: B2 chain
partner: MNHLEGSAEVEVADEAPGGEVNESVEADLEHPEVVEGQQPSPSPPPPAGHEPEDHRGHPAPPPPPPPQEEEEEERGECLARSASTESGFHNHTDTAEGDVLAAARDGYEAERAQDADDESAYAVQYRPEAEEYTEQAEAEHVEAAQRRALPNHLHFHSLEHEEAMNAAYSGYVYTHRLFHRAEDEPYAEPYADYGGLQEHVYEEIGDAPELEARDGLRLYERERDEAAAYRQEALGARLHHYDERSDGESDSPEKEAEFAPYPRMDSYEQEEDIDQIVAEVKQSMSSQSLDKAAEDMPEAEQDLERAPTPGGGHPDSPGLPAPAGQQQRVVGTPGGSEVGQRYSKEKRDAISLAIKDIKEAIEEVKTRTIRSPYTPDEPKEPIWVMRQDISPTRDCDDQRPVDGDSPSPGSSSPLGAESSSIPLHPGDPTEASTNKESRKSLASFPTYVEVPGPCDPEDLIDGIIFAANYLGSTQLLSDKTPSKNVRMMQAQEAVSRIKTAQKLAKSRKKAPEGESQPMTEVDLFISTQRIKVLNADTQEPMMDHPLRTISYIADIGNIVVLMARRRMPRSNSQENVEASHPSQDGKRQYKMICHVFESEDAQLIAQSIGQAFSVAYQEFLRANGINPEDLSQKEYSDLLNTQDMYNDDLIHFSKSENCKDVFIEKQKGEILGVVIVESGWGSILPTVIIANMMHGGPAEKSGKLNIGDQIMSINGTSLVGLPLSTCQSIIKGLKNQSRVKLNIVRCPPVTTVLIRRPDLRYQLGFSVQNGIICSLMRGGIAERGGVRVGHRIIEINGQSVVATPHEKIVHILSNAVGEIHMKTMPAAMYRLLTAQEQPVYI

Variants of: B1
Conditions: with APBA1, Q02410-2

Row | effect of a mutation on the interaction | Variant
1 | disrupting interaction | T27N

Variants of: B2
Conditions: with APBA1, Q02410-2

Row | effect of a mutation on the interaction | Variant
2 | disrupting interaction | T27N

Variants of: B3
Conditions: with apba1_mouse Apba1, B2RUJ5

Row | effect of a mutation on the interaction | Variant
3 | disrupting interaction | T27N
